From patent EP1169642B1

Target: purified human complement Factor H (human) (UniProt P08603)
Assay: steady state fluorescence titration of purified human Factor H

Chain of purified human complement Factor H (human) (P08603 19-1231 limits assumed): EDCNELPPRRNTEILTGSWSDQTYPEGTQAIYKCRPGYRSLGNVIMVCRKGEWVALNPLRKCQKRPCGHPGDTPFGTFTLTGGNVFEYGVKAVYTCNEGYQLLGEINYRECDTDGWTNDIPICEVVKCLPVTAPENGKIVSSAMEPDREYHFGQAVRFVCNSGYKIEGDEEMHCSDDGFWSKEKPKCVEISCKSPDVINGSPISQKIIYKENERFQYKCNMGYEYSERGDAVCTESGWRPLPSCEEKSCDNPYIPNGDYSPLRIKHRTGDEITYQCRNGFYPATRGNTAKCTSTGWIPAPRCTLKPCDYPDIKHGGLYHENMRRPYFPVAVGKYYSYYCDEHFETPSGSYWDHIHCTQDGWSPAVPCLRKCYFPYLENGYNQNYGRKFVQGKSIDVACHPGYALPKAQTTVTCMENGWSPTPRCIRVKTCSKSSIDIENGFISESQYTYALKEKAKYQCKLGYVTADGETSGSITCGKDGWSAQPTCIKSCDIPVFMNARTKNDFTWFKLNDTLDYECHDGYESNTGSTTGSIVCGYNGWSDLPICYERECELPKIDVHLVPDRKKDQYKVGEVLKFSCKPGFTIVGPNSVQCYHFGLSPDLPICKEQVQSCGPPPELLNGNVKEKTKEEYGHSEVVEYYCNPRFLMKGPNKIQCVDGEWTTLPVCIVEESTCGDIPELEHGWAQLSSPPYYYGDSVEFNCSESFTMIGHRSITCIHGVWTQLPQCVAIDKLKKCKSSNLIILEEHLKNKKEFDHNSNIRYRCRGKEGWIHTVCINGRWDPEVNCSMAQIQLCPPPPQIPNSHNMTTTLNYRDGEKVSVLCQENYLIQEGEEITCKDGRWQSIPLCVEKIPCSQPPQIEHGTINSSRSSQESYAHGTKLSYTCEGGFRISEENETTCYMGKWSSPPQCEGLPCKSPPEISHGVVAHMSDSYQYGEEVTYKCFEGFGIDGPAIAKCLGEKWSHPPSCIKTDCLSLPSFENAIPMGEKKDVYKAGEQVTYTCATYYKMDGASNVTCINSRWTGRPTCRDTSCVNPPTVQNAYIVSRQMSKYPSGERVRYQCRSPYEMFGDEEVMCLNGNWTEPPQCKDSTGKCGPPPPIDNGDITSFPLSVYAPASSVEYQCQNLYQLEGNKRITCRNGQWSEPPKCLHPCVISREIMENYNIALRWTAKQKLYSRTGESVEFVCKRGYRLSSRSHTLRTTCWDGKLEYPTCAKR

- stoichiometry (DMP1:Factor H): 1 molar ratio
B1: recombinant dentin matrix protein 1 (rDMP1) (ligand)
chain: LPVTRYQNNESEDSEEWKGHLAQAPTPPLESSESSEGSKVSSEEQANEDPSDSTQSEEGLGSDDHQYIYRLAGGFSRSTGKGGDDKDDDEDDSGDDTFGDDDSGPGPKDRQEGGNSRLGSDEDSDDTIQASEESAPQGQDSAQDTTSESRELDNEDRVDSKPEGGDSTQESESEEHWVGGGSDGESSHGDGSELDDEGMQSDDPESIRSERGNSRMNSAGMKSKESGENSEQANTQDSGGSQLLEHPSRKIFRKSRISEEDDRSELDDNNTMEEVKSDSTENSNSRDTGLSQPRRDSKGDSQEDSKENLSQEESQNVDGPSSESSQEANLSSQENSSESQEEVVSESRGDNPDPTTSYVEDQEDSDSSEEDSSHTLSHSKSESREEQADSESSESLNFSEESPESPEDENSSSQEGLQSHSSSAESQSEESHSEEDDSDSQDSSRSKEDSNSTESKSSSEEDGQLKNIEIESRKLTVDAYHNKPIGDQDDNDCQDGY
